Results published in patent publication US20220242973A1 (Molecular Partners, published 2022).
Each block holds one binder with its values, some of them ahead of it.

Experiments:
[1] = target: T1, Recombinant human FAP (fibroblast activation protein) (human, UniProt Q12884 26-760); experiment: cell-based or functional assay
T1 sequence (looked up): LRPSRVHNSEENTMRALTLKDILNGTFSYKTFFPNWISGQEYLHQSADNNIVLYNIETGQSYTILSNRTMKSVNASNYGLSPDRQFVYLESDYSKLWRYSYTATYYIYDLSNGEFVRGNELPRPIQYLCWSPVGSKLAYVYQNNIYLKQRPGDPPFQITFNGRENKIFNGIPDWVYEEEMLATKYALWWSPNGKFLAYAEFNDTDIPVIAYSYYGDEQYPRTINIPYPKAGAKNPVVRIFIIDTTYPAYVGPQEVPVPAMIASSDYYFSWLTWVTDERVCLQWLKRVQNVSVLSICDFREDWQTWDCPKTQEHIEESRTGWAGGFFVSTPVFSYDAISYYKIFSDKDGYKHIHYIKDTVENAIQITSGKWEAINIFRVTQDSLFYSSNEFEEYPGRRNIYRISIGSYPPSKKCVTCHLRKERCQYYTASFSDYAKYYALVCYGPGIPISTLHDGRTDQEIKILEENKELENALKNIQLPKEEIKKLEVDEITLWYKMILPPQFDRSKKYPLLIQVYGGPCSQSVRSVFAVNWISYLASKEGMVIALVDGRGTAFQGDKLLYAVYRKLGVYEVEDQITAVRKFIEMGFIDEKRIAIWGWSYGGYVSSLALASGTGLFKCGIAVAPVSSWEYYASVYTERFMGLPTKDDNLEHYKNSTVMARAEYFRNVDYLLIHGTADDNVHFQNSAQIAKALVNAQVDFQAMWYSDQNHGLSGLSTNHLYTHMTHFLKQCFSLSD

[2] = target: T2, Human FAP expressed on the cell surface (WI38, CHO-FAP1.9, U87MG cells) (human, UniProt Q12884 1-760); experiment: FACS on FAP-expressing WI38 cells, Penta-His AF647 detection
T2 construct: whole, on cells; Endogenous on WI38 and U87MG cells; from a human FAP cDNA (OriGene) in CHO-FAP1.9 cells; also called hFAP; FAP+ cells
T2 sequence (looked up): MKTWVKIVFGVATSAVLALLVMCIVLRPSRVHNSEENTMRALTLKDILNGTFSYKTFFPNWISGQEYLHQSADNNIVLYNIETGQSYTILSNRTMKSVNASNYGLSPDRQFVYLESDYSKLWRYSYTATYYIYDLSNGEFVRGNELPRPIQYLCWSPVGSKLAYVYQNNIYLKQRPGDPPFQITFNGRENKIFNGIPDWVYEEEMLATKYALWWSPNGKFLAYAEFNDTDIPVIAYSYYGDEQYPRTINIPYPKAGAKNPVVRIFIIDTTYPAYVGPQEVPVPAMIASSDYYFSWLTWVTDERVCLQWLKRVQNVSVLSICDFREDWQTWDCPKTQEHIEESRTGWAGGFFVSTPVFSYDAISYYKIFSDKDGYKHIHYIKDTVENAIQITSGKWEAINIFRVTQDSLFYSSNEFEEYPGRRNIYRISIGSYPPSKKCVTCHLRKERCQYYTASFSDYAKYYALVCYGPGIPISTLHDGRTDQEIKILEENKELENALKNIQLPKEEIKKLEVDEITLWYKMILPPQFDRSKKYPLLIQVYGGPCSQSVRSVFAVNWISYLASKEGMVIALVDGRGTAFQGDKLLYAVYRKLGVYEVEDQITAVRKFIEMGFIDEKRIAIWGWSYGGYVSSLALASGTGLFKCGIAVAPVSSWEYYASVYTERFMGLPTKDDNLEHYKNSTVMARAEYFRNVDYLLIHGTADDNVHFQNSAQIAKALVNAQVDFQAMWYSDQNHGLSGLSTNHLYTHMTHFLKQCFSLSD
Method: (§1) Using multi-well plates, 20,000 WI38 cells were added per well in 50 μl of PBS. 50 μl of appropriate dilutions (2× dilution steps) of ankyrin repeat protein was then added to the cells and incubated for 30 minutes on ice. After the ankyrin repeat protein-binding reaction, cells were washed twice with PBS. Direct immunofluorescent detection of the His-tagged ankyrin repeat proteins using Penta-His AF647 conjugate (QIAgen) and determination of live cells using LIVE/DEAD™ Fixable Green Dead Cell Stain Kit (ThermoFisher) were then performed together in one step. The Penta-His AF647 conjugate and the LIVE/DEAD™ Fixable Green dye were applied to the cells together in 1/200 (Penta-His) and 1/1000 (LID Fixable) final dilutions and incubated for 20-30 minutes on ice. After washing the cells with PBS, cells were re-suspended in 1× CellFix™ buffer (BD Biosciences) (10× stock was diluted 1/10 in water). The samples were incubated in CellFix™ buffer for 15-20 minutes at RT, then spun down at 400 g for 5 min. Supernatant was discarded and cells were re-suspended in 200 μl PBS and stored at 4° C. until acquisition and FACS analysis. Acquisition and FACS analysis, including the determination of median fluorescence intensity (MFI), were done within 5 days after staining using an AttuneNxT instrument. Binding curves were fitted by non-linear regression curve fitting using GraphPad Prism software (v 7.0.4).
EC₅₀ values were determined using standard procedures known to the person skilled in the art. […] Table 2 provides the EC₅₀ values of selected ankyrin repeat proteins as examples.

[3] = target: T1, Recombinant human FAP (fibroblast …); experiment: SPR (ProteOn), human FAP immobilized on GLC chip
Method: Briefly, human FAP was diluted in 10 mM Na-acetate pH 5.3 buffer and covalently immobilized on a GLC chip (BioRad) to a level of around 2000 resonance units (RU). The interaction of ankyrin repeat protein and hFAP was then measured by injecting 200 μl running buffer (PBS, pH 7.4 containing 0.005% Tween 20®) containing serial dilutions of ankyrin repeat proteins covering a concentration range between 30 nM and 0.5 nM (on-rate measurement), followed by a running buffer flow for at least 25 minutes at a constant flow rate of 100 μl/min (off-rate measurement). The regeneration was performed using 15 μl of 10 mM Glycine pH 2 followed by 15 μl of 124 mM H₃PO₄. The signals (i.e. resonance unit (RU) values) of the interspots and a reference injection (i.e. injection of running buffer only) were subtracted from the RU traces obtained after injection of ankyrin repeat protein (double-referencing). Based on the SPR traces obtained from the on-rate and off-rate measurements, the on- and off-rate of the corresponding ankyrin repeat protein—FAP interaction was determined.
Dissociation constants (KD) were calculated from the estimated on- and off-rates using standard procedures known to the person skilled in the art. […] Table 1 provides the KD values of some selected ankyrin repeat proteins as examples.

[4] = target: T3, Cynomolgus FAP expressed on CHO cells (cynomolgus monkey (Macaca fascicularis)); experiment: FACS on cFAP-expressing CHO cells
T3 construct: whole, on cells; also called cFAP-expressing CHO cells; cynomolgus FAP+ CHO cells
Method: as §1
A series of dilutions of ankyrin repeat proteins were added to cFAP expressing CHO cells. The binding reaction and subsequent analysis and MFI measurements were performed essentially as described in Example 3 for the WI38 cells.

- FAP activity (%) [1]: 115%
- EC50 [2]: 276 pM
- Kd [3]: 186 pM
B1: DARPin® protein #9 (designed binder)
chain: MRGSHHHHHHGSYPYDVPDYAGSDLGKKLLEAARAGQDDEVRILMANGADVNAFDTTGRTPLHLAALWGHLEIVEVLLKHGADVNASDWFSITPLHLAAFMGHLEIVEVLLNHGADVNAQDKFGKTAFDISIDHGNEDLAEILQKLN

- FAP activity (%) [1]: 111%
- EC50 [2]: 1090 pM
- Kd [3]: 1350 pM
B2: DARPin® protein #4 (designed binder)
chain: MRGSHHHHHHGSYPYDVPDYAGSDLGHKLLEAATQGQDDEVRILLAAGADVNAKDEHGKTPLHLAAKKGHLEIVEVLLKAGADVNAKDDWGVTPLHLAAYWGHLEIVEVLLKAGADVNAQDNDGYTPADLAATFGHEDIAEVLQKLN

- FAP activity (%) [1]: 112%
- EC50 [4]: 5600 pM
- EC50 [2]: 188 pM
- Kd [3]: 115 pM
B3: DARPin® protein #18 (designed binder)
chain: MRGSHHHHHHGSYPYDVPDYAGSDLGKKLLEAARAGQDDEVRILLAAGADVNAKDVLGWTPLHLAAFEGHLEIVEVLLKAGADVNAKDKKGWTPLQLAARTGHLEIVEVLLKAGADVNAKDHIGATPLHLAAWQGHPEIVEVLLKAGADVNAQDKSGKTPADLAADAGHEDIAEVLQKLN

- FAP activity (%) [1]: 106%
- EC50 [4]: 6100 pM
- EC50 [2]: 150 pM
- Kd [3]: 53 pM
B4: DARPin® protein #26 (designed binder)
chain: MRGSHHHHHHGSYPYDVPDYAGSDLGKKLLEAARAGQDDEVRELLKAGADVNAKDEVGRTPLHLAAQIGHLEIVEVLLKAGADVNAKNRWGVTPLHVAAWVGHLEIVEVLLKAGADVNAKDQQGATPLHLAAIRGHLEIVEVLLKAGADVNAQDKSGKTPADLAADAGHEDIAEVLQKLN

- FAP activity (%) [1]: 94%
- EC50 [4]: 4100 pM
- EC50 [2]: 308 pM
- Kd [3]: 195 pM
B5: DARPin® protein #19 (designed binder)
chain: MRGSHHHHHHGSYPYDVPDYAGSDLGEKLLVAALYGQDDEVRILLAAGADVNAKDQWGLTPLHKAALQGHLEIVEVLLKAGADVNAKDERGHTPLHWAARFGHLEIVEVLLKAGADVNAQDQKGYTPADLAALWGHEDIAEVLQKLN

- FAP activity (%) [1]: 102%
- EC50 [4]: 7900 pM
- EC50 [2]: 206 pM
- Kd [3]: 241 pM
B6: DARPin® protein #33 (designed binder)
chain: MRGSHHHHHHGSYPYDVPDYAGSDLGKKLLEAARAGQDDEVRELLKAGADVNAKDEWGKTPLHLAAIRGHLEIVEVLLKAGADVNAKDTHGITPLHLAAFVGHLEIVEVLLKAGADVNAKDYLGRTPLHIAAAKGHLEIVEVLLKAGADVNAQDKSGKTPADLAADAGHEDIVEVLQKLN

- FAP activity (%) [1]: 101%
- EC50 [2]: 650 pM
- Kd [3]: 7020 pM
B7: DARPin® protein #30 (designed binder)
chain: MRGSHHHHHHGSYPYDVPDYAGSDMGKKLLEAARAGQDDEVRELLKAGADVNAKDEWGWTPLHVAAERGHLEIVEVLLKAGADVNAKDKHGVTPLHLAAWRGHLEIVEVLLKAGADVNAKDIQGLTPLHIAAHQGHLEIVEVLLKAGADVNAQDKSGKTPADLAADAGHEDIAEVLQKLN
